{"source": "patent US7262289", "about": "(Bristol-Myers Squibb, dated 2007)", "molecular_target": "T1, human KCNQ3/KvLR2 (human, UniProt O43525 25-872)", "T1 sequence": "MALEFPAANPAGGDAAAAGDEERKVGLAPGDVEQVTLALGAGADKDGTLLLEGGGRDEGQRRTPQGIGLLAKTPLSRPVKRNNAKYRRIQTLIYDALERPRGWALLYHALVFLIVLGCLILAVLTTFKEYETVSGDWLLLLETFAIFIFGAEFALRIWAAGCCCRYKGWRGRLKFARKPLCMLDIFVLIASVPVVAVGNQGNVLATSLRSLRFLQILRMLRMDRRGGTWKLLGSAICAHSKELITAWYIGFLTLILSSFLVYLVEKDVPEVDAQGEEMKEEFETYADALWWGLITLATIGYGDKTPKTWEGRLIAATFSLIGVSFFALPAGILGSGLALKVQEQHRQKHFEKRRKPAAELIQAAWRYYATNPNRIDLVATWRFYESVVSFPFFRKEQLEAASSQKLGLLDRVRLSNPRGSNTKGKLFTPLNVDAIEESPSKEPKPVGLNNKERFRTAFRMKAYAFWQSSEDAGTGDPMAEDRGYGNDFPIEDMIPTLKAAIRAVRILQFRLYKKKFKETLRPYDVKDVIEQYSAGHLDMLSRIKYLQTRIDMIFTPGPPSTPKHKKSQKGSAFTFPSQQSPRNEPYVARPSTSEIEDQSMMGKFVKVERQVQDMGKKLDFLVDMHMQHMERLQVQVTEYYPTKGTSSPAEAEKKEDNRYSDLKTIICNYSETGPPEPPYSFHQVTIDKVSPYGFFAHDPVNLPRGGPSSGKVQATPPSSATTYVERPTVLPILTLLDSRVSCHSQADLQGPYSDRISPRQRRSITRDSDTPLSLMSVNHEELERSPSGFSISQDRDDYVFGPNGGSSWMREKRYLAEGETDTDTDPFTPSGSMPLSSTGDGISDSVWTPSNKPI", "test": "cell-based or functional assay", "data": [{"binder": "human KCNQ2/KvLR1 (other) MVQKSRNGGVYPGPSGEKKLKVGFVGLDPGAPDSTRDGALLIAGSEAPKRGSILSKPRAGGAGAGKPPKRNAFYRKLQNFLYNVLERPRGWAFIYHAYVFLLVFSCLVLSVFSTIKEYEKSSEGALYILEIVTIVVFGVEYFVRIWAAGCCCRYRGWRGRLKFARKPFCVIDIMVLIASIAVLAAGSQGNVFATSALRSLRFLQILRMIRMDRRGGTWKLLGSVVYAHSKELVTAWYIGFLCLILASFLVYLAEKGENDHFDTYADALWWGLITLTTIGYGDKYPQTWNGRLLAATFTLIGVSFFALPAGILGSGFALKVQEQHRQKHFEKRRNPAAGLIQSAWRFYATNLSRTDLHSTWQYYERTVTVPMYSSQTQTYGASRLIPPLNQLELLRNLKSKSGLAFRKDPPPEPSPSKGSPCRGPLCGCCPGRSSQKVSLKDRVFSSPRGVAAKGKGSPQAQTVRRSPSADQSLEDSPSKVPKSWSFGDRSRARQAFRIKGAASRQNSEASLPGEDIVDDKSCPCEFVTEDLTPGLKVSIRAVCVMRFLVSKRKFKESLRPYDVMDVIEQYSAGHLDMLSRIKSLQSRVDQIVGRGPAITDKDRTKGPAEAELPEDPSMMGRLGKVEKQVLSMEKKLDFLVNIYMQRMGIPPTETEAYFGAKEPEPAPPYHSPEDSREHVDRHGCIVKIVRSSSSTGQKNFSAPPAAPPVQCPPSTSWQPQSHPRQGHGTSPVGDHGSLVRIPPPPAHERSLSAYGGGNRASMEFLRQEDTPGCRPPEGTLRDSDTSISIPSVDHEELERSFSGFSISQSKENLDALNSCYAAVAPCAKVRPYIAEGESDTDSDLCTPCGPPPRSATGEGPFGDVGWAGPRK", "values": [{"measurement": "current amplitude in oocytes co-expressing KCNQ2 and KCNQ3 against oocytes injected with each channel alone (two-electrode voltage clamp)", "result": 15, "unit": "fold"}, {"measurement": "shift of tail current reversal potential per 10-fold change in external K+ for KCNQ2+KCNQ3", "result": 57, "unit": "mV"}]}]}
